Paper PMC10907699, “The IRE1β-mediated unfolded protein response is repressed by the chaperone AGR2 in mucin producing cells” (The EMBO Journal, 2023)
Substitutions are numbered along the chain they refer to. Names and notes keep the numbering of the source. One block for each molecule: values may come before it.

T1: mouse AGR2 (21-175) C81E (mouse, UniProt O88312 21-175, C81E)
T1 sequence: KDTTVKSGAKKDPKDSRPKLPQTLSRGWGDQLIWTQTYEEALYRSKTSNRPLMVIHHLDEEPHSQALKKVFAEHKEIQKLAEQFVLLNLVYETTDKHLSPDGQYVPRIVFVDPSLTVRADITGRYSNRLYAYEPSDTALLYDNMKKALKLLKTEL

T2: mouse AGR2 (21-175) C81S (mouse, UniProt O88312 21-175, C81S)
T2 sequence: T1 sequence with E61S

T3: MBP-hIRE1bLD (35-428)-NanoLuc-H6 (human, UniProt Q76MJ5 35-428)
T3 construct: IRE1β (ERN2) luminal domain, human, residues 35-428; No step that cleaves MBP is described; also called IRE1β-nluc donor; IRE1β LD-nanoluc; source: T7 Express lysY/Iq E. coli, purified (Ni-NTA, amylose resin, two gel filtrations); not shown: NanoLuc (complete, WT), C-terminal, kept
T3 sequence (looked up): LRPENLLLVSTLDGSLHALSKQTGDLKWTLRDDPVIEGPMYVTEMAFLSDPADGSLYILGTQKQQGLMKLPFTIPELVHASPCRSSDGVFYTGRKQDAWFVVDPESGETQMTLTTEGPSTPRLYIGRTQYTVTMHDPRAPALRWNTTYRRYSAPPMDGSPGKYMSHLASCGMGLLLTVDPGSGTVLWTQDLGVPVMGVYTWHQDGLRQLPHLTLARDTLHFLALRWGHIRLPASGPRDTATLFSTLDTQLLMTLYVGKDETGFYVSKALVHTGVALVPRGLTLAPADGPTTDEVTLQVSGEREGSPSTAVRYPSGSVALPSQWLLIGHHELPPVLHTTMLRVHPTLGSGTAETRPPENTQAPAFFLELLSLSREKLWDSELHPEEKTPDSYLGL

B1: MBP-hIRE1b_LD_(35-428)-AviTag-His7 (domain or fragment, human, UniProt Q76MJ5 35-428, looked up)
chain: T3 sequence (looked up)
modifications: biotin on the AviTag (endogenous biotinylation of a fraction of the protein in E. coli)
notes: IRE1β (ERN2) luminal domain, human, residues 35-428; No step that cleaves MBP is described; also called IRE1β LD; IRE1β LD probe; source: T7 Express lysY/Iq E. coli, purified (Ni-NTA, amylose resin, two gel filtrations); not shown: AviTag, C-terminal, kept
B2: MBP-hIRE1β LD-mGL-AviTag-His (domain or fragment, human, UniProt Q76MJ5 35-428, looked up)
chain: T3 sequence (looked up)
notes: IRE1β (ERN2) luminal domain, human; C-terminal mGL inserted in the MBP-hIRE1bLD of UK2796 (residues 35-428); also called GFP-tagged IRE1β LD; IRE1β LD-mGL acceptor; source: T7 Express lysY/Iq E. coli, purified (Ni-NTA, amylose resin, two gel filtrations); not shown: MBP, N-terminal, kept; mGL (monomeric Green Lantern), C-terminal, kept
B3: mouse AGR2 (21-175) C81E (natural protein, UniProt O88312 21-175, looked up)
chain: T1 sequence
notes: AGR2, mouse, residues 21-175, active site mutant C81E; also called AGR2 C81E; UK2835; source: T7 Express lysY/Iq E. coli, purified (Ni-NTA, SENP2 cleavage, reverse Ni-NTA); not shown: His6, N-terminal, cleaved; SUMO3, N-terminal, cleaved
B4: mouse AGR2 (21-175) C81S (natural protein, UniProt O88312 21-175, looked up)
chain: T1 sequence with E61S
notes: AGR2, mouse, residues 21-175, active site mutant C81S; also called AGR2 C81S; UK2795; source: T7 Express lysY/Iq E. coli, purified (Ni-NTA, SENP2 cleavage, reverse Ni-NTA); not shown: His6, N-terminal, cleaved; SUMO3, N-terminal, cleaved

Experiments:
[1] = molecular target: AGR2 (Homo sapiens) (UniProt O95994); conditions: cited from earlier work
[2] = molecular target: MBP-hIRE1β LD ∆C-mGL-AviTag-His (human) (UniProt Q76MJ5); assay: mass photometry (ISCAT); IRE1β LD wt or ∆C alone at the indicated concentrations; HK buffer, room temperature (~21 °C)
[3] = molecular target: T1, mouse AGR2 (21-175) C81E; assay: BLI; K1/2 max from steady-state one-site fit
[4] = molecular target: T2, mouse AGR2 (21-175) C81S; assay: BLI; K1/2 max from steady-state one-site fit
[5] = molecular target: T3, MBP-hIRE1bLD (35-428)-NanoLuc-H6; assay: FRET or BRET; kinetic readings: AGR2 variants or unlabelled IRE1β LD competitor added to the pre-formed IRE1β LD-nanoluc / IRE1β LD-mGL BRET pair; BRET ratio every 20 s, one-phase exponential decay; conditions: both partners purified
[6] = molecular target: the molecule itself; assay: mass photometry (ISCAT); IRE1β LD wt or ∆C alone at the indicated concentrations; HK buffer, room temperature (~21 °C)
[7] = molecular target: B1; assay: BLI; biotinylated IRE1 LD loaded on streptavidin sensors, exposed sequentially to increasing concentrations of AGR2; 30 °C; HK buffer (50 mM HEPES-KOH pH 7.4, 150 mM KCl) with 0.05% Triton X-100 and 1 mM TCEP; signal against AGR2 concentration fitted to a one-site specific binding function (the methods call the result a KD of binding); conditions: both partners purified

Molecule: AGR2 (from UniProt O95994)
Kd [1]: 8 µM

stoichiometry N [2]: 2
Molecule: MBP-hIRE1β LD ∆C-mGL-AviTag-His (from UniProt Q76MJ5 35-428) (domain or fragment)

Molecule: B1
Kd [3]: 78.5 µM | Kd [4]: 124 µM | binding result [5]: binds

Molecule: B2
stoichiometry N [6]: 2

Molecule: B3
binding result [7]: binds

Molecule: B4
binding result [7]: binds
